This is an account of results in paper PMC5093063.

What all share (experiment): SEC
(Size exclusion chromatography separates by hydrodynamic size, large species first.)

Assay [1] addresses Chimeric IN F-F-H (NTD and CCD of FIV, CTD of HIV-1) (FIV (Petaluma) | HIV-1) (UniProt P12497).
Assay [2] addresses Chimeric IN F-H-F (NTD and CTD of FIV, CCD of HIV-1) (FIV (Petaluma) | HIV-1) (UniProt P12497).
In assay [3] the target is Chimeric IN F-H-H (NTD of FIV, CCD and CTD of HIV-1) (FIV (Petaluma) | HIV-1) (UniProt P12497).
Assay [4] concerns the target Chimeric IN H-F-F (NTD of HIV-1, CCD and CTD of FIV) (HIV-1 | FIV (Petaluma)) (UniProt P12497).

Regarding “Chimeric IN F-F-H (NTD and CCD of FIV, CTD of HIV-1) (from UniProt P12497 211-289) (enzyme)”, the stoichiometry N (usually a count of units in the complex or per binding partner) in assay [1] was found to be 2.

On to “Chimeric IN F-H-F (NTD and CTD of FIV, CCD of HIV-1) (from UniProt P12497 53-210) (enzyme)”, for which, in assay [2], the stoichiometry N came to 2.

Consider “Chimeric IN F-H-H (NTD of FIV, CCD and CTD of HIV-1) (from UniProt P12497) (enzyme)”, for which the stoichiometry N in assay [3] was 2. In assay [4], “Chimeric IN H-F-F (NTD of HIV-1, CCD and CTD of FIV) (from UniProt P12497 2-52) (enzyme)” had a stoichiometry N of 2.
